Data taken from article PMC2932737, “DNA Clasping by Mtb HU”.

Experiments:
[1] = target: HupBMtb (HU, MDP-1, HLPMt) (Mycobacterium tuberculosis H37Rv) (UniProt P9WMK7); assay: EMSA
[2] = target: HupBMtb (HU, MDP-1, HLPMt) (Mycobacterium tuberculosis H37Rv) (UniProt P9WMK7); assay: agarose EMSA; details: scale: fold higher affinity than for linear pBSK
HupBMtbN [3] = target: T1, HupBMtbN (Mycobacterium tuberculosis H37Rv, UniProt P9WMK7 3-97); assay: EMSA; 10 mM KCl; details: protein: recombinant, tags: His (pET28a, NdeI/HindIII), chain copies: 2, label: 5' 32P, blunt
T1 sequence (P9WMK7 3-97): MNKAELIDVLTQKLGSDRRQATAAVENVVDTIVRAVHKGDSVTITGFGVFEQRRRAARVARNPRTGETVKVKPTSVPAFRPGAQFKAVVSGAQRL

[4] = target: T2, HupBMtb (HU, MDP-1, HLPMt) (Mycobacterium tuberculosis H37Rv, UniProt P9WMK7 3-216); assay: EMSA; 200 mM KCl; details: protein: recombinant, tags: His (pET28a, NdeI/HindIII), chain copies: 2, label: 5' 32P, blunt
T2 sequence (P9WMK7 3-216): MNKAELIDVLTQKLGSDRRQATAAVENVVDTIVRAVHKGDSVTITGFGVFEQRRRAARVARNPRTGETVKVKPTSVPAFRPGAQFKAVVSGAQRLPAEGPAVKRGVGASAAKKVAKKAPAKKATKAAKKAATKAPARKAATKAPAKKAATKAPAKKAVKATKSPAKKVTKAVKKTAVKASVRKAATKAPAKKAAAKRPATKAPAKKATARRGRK

[5] = target: T2, HupBMtb (HU, MDP-1, HLPMt); assay: EMSA; 10 mM KCl; details: protein: recombinant, tags: His (pET28a, NdeI/HindIII), chain copies: 2, label: 5' 32P, blunt
[6] = target: T2, HupBMtb (HU, MDP-1, HLPMt); assay: EMSA; 0-300 nM protein; negligible; details: protein: recombinant; tags: His (pET28a, NdeI/HindIII); chain copies: 2; label: 5' 32P; blunt
[7] = target: T2, HupBMtb (HU, MDP-1, HLPMt); assay: EMSA; 0-300 nM protein; two complexes; details: protein: recombinant; tags: His (pET28a, NdeI/HindIII); chain copies: 2; label: 5' 32P; blunt
HupBMtbN [8] = target: T1, HupBMtbN; assay: EMSA; 0-300 nM protein; single complex; details: protein: recombinant; tags: His (pET28a, NdeI/HindIII); chain copies: 2; label: 5' 32P; blunt
[9] = 48 bp duplex with nick in the lower strand
[10] = duplex with 2 nt gap in the lower strand
[11] = duplex with 1 nt gap in the lower strand

Chain of HupBMtb (HU, MDP-1, HLPMt) (Mycobacterium tuberculosis H37Rv) (P9WMK7 3-216): as above

## CTCTGTGACTGGTGTGACCTGGGAGAGAGAAGTTTTTTTAAGAACGTT (double strand) [A1 ds DNA (SH_1+SH_2)]
[1]
  Kd: 42 nM

## pBluescript SK supercoiled
[2]
  binding signal: 1.5

B1: A2 nick DNA (SH_1+SH_3+SH_4) (structured_DNA)
DNA 1: CTCTGTGACTGGTGTGACCTGGGAGAGAGAAGTTTTTTTAAGAACGTT
DNA 2: TCCCAGGTCACACCAGTCACAGAG
DNA 3: AACGTTCTTAAAAAAACTTCTCTC
HupBMtbN [3]; [9]
  Kd: 1000 nM
[4]; [9]
  Kd: 65 nM

B2: A4 2-nt gap DNA (SH_1+SH_3+SH_6) (structured_DNA)
DNA 1: B1 DNA 1
DNA 2: TCCCAGGTCACACCAGTCACAGAG
DNA 3: AACGTTCTTAAAAAAACTTCTC
HupBMtbN [3]; [10]
  Kd: 536 nM
[5]; [10]
  Kd: 60 nM
[4]; [10]
  Kd: 88 nM

B3: A3 1-nt gap DNA (SH_1+SH_3+SH_5) (structured_DNA)
DNA 1: B1 DNA 1
DNA 2: TCCCAGGTCACACCAGTCACAGAG
DNA 3: AACGTTCTTAAAAAAACTTCTCT
HupBMtbN [3]; [11]
  Kd: 725 nM
[5]; [11]
  Kd: 55 nM

B4: A6 84% GC DNA (SH_10+SH_11) (dsDNA)
DNA 1: GCCCGGCTGCACCGCGCCACCGCGG
DNA 2: CCGCGGTGGCGCGGTGCAGCCGGGC
[6]
  binding result: no binding

B5: A7 64% AT DNA (SH_12+SH_13) (dsDNA)
DNA 1: TCAAATCTAATCGGAGTCGTTTTGA
DNA 2: TCAAAACGACTCCGATTAGATTTGA
[7]
  binding result: binds
HupBMtbN [8]
  binding result: binds
